For one substance, apoptotic Sf9 cells on coexpression (percentage of cells) results are on record in patent publication US20030119169A1.

This assay concerns the target truncated Mch3α (amino acids 199-303), p12 subunit (human) (UniProt P55210). Kind of assay: cell-based or functional assay.

Some results are limits rather than exact numbers.

Chain of truncated Mch3α (amino acids 199-303), p12 subunit (human) (P55210 199-303): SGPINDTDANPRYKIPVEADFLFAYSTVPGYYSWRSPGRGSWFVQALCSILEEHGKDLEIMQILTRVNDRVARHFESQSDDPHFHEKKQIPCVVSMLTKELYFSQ

As for “CPP32-p20 subunit (from UniProt P42574 29-175) (enzyme)”, the apoptotic Sf9 cells on coexpression (percentage of cells) is > 50%.
